Where a chain is given by its changes, count along the chain named. One block for each binder: values may come before it.
How the values were obtained:
IL-4R on HEK-Blue cells [1] = target: T1, IL-4R on HEK-Blue cells (human, UniProt P24394 26-825); test: cell-based or functional assay
T1 sequence (looked up): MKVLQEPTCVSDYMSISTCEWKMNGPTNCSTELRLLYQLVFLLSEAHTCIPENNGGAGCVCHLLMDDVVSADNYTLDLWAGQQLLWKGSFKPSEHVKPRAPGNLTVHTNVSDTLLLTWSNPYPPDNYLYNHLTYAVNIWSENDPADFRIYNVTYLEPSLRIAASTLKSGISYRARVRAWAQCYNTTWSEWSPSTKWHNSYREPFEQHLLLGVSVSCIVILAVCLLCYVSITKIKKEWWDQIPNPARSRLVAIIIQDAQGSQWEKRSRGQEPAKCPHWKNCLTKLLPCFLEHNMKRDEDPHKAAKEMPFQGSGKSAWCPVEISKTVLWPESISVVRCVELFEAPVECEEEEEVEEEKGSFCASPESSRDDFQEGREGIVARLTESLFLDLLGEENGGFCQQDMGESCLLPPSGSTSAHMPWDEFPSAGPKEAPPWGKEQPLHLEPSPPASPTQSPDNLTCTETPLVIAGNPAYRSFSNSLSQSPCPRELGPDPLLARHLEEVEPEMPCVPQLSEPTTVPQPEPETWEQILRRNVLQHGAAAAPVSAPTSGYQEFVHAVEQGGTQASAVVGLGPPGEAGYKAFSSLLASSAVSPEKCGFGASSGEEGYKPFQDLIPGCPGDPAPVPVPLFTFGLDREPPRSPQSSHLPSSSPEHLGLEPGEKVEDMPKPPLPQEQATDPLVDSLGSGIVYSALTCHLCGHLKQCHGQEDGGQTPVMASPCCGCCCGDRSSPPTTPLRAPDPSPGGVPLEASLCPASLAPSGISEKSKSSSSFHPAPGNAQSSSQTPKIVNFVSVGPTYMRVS

IL-4R on HEK-Blue cells [2] = target: T1, IL-4R on HEK-Blue cells; test: cell-based or functional assay; remark: listed apart in the source
IL-4R on HEK-Blue cells [3] = target: T1, IL-4R on HEK-Blue cells; test: cell-based or functional assay; remark: listed apart in the source
[4] = target: T2, recombinant human IL-4R protein (ECD with His Tag, Sino Biological) (human, UniProt P24394 26-232); test: SPR (Biacore T200); antibody captured via anti-human IgG-Fc, human IL-4R ECD-His as analyte; 1:1 Langmuir
T2 construct: extracellular domain; also called human IL-4R ECD; not shown: His tag
T2 sequence (looked up): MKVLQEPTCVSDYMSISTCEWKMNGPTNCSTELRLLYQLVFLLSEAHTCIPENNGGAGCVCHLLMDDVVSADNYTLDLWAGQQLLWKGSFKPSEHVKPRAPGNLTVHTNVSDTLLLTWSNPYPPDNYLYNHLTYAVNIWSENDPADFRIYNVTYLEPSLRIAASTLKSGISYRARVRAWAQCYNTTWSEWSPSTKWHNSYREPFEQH

[5] = target: T3, recombinant cynomolgus monkey IL-4R (ECD with His-tag, Acro Biosystems) (cynomolgus monkey, UniProt A0A2K5V580 33-239); test: SPR (Biacore T200); antibody captured via anti-human IgG-Fc, cynomolgus IL-4R ECD-His as analyte; 1:1 Langmuir
T3 construct: extracellular domain; also called cynomolgus IL-4R; not shown: His tag
T3 sequence: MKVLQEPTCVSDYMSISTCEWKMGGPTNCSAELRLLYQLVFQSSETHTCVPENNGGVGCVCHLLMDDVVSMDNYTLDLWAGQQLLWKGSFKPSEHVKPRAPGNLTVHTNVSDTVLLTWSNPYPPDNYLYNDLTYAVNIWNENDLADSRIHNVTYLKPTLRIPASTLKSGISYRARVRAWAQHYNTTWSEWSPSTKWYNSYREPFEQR

neutralize human IL-13 induced signaling in the stat-6 reporter gene assay: Mean IC50 [pM] (IL-4R on HEK-Blue cells [2]): 22.1 pM
neutralize human IL-4-induced signaling in the stat-6 reporter gene assay: Mean IC50 [pM] (IL-4R on HEK-Blue cells [3]): 23.9 pM
B3: PRO2198 (bispecific antibody)
chain 1: DIQMTQSPSSLSARVGDRVTITCQASEDIESYLAWYQQKPGKAPKLLIYRASTLAYGVPSRFSGSGSGRDFTLTISSLQPEDFATYYCLGSSYSTGSNIFGQGTKVEIKRTVAAPSVFIFPPSDEQLKSGTASVVCLLNNFYPREAKVQWKVDNALQSGNSQESVTEQDSKDSTYSLSSTLTLSKADYEKHKVYACEVTHQGLSSPVTKSFNRGEC
chain 2: not shown

Kd [4]: 0.197 nM
koff [4]: 5.76e-05 s⁻¹
kon [4]: 293000 M⁻¹ s⁻¹
Kd [5]: 0.0351 nM
koff [5]: 3.44e-05 s⁻¹
kon [5]: 980000 M⁻¹ s⁻¹
neutralize human IL-13 induced signaling in the stat-6 reporter gene assay: IC50 [pM] (single analysis) (IL-4R on HEK-Blue cells [2]): 11.3 pM
neutralize human IL-4-induced signaling in the stat-6 reporter gene assay: Mean IC50 [pM] (IL-4R on HEK-Blue cells [3]): 11.5 pM
B4: PRO2199 (bispecific antibody)
chain 1: not shown
chain 2: B3 chain 1 with R14S, R69T

Second part, the binder before the results:

B1: PRO1517 (scFv)
chain: DIQMTQSPSSLSASVGDRVTITCQASEDIESYLAWYQQKPGKAPKLLIYRASTLAYGVPSRFSGSGSGTDFTLTISSLQPEDFATYYCLGSSYSTGSNIFGTGTKVTVLGGGGGSGGGGSGGGGSGGGGSEVQLVESGGGLVQPGGSLRLSCAASGFSSSSAHYMCWVRQAPGKGLEWIGCIYAGSRGSTYYASWAKGRFTISRDNSKNTVYLQMNSLRAEDTAVYYCARAAFVNRGVSWIWPYYFSLWGQGTLVTVSS
Neutralization of hIL-4-induced signaling in reporter gene assay: IC50 (IL-4R on HEK-Blue cells [1]): 1.44 ng/mL
Neutralization of hIL-13-induced signaling in reporter gene assay: IC50 (IL-4R on HEK-Blue cells [1]): 1.83 ng/mL

B2: PRO1535 (scFv)
chain: B1 chain with A43P, V132S, G180A, R204K, Y227F
Neutralization of hIL-4-induced signaling in reporter gene assay: IC50 (IL-4R on HEK-Blue cells [1]): 1.15 ng/mL
Neutralization of hIL-13-induced signaling in reporter gene assay: IC50 (IL-4R on HEK-Blue cells [1]): 2.3 ng/mL

— EP4019090A1 (Numab Therapeutics AG, dated 2022)
